Laboratory results taken from publication PMC5389638 (Nucleic Acids Research, 2016).

Target: the molecule itself
Experiment: AFM volume analysis

B1: 6His–Ver (natural protein, Drosophila, UniProt Q9VTZ2 1-214, looked up)
chain: MDFNQSFEDIESQLDNFVIRKNQQSEKSTGKCGPEVHDNVPLTISQIERATQDPENENVFITDDVHPIHFCTCIIYAFVTGNGTHNESFMKFMIDDGTGSLEASITKKPFNGRVISSLYSEASSLASSEAYKSIAVSMMRLLQVSMEYIDPTRISRGHSLFLRGRPNRFRGKMGLDAFQFFIDSGRSRNMEIGFVDYLTDWQRRHKTMQNTTNK
stoichiometry N: 2
